# Results as given in patent US20100028347A1 (Eli Lilly, published 2010).
# B1: anti-human VEGFR-1 antibody 18F1 (antibody, V domains shown)
# VH: QAQVVESGGGVVQSGRSLRLSCAASGFAFSSYGMHWVRQAPGKGLEWVAVIWYDGSNKYYADSVRGRFTISRDNSENTLYLQMNSLRAEDTAVYYCARDHYGSGVHHYFYYGLDVWGQGTTVTVSS
# VL: not shown
# notes: Fully human antibody (gamma heavy chain, kappa light chain) from hybridomas of KM transgenic mice, purified; The light chain entry runs a few residues into the kappa constant region; also called MC-18F1; IMC-18F1
# How the values were obtained:
# [1] = molecular target: T1, recombinant extracellular domain of VEGFR-1 (UniProt P17948 27-758, limits assumed); assay: SPR, BIAcore 2000, VEGFR-1 extracellular domain immobilised at low density
# T1 construct: extracellular domain
# T1 sequence (P17948 27-758 limits assumed): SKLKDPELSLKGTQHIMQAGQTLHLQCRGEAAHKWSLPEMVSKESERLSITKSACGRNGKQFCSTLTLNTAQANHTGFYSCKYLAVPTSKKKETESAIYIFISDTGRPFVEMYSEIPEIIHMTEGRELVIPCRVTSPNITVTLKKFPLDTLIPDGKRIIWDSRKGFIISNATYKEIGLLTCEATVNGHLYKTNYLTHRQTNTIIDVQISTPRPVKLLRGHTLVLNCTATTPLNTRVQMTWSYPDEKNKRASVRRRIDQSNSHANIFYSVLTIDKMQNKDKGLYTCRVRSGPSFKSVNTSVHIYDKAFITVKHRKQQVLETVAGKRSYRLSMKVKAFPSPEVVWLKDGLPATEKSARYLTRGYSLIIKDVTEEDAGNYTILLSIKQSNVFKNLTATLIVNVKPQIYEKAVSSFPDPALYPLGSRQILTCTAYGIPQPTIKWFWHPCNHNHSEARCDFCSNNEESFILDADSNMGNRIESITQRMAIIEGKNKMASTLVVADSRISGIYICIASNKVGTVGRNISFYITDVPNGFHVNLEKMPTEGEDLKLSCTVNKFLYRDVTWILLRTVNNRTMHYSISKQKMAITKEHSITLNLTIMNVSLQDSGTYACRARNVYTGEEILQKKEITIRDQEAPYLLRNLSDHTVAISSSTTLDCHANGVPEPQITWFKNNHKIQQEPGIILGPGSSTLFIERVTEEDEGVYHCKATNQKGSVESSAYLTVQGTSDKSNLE
# Experimental: Affinities of anti-VEGFR-1 antibody clones 6F9, 13 G12, 15F1 1, 18F1 were determined by plasmon resonance technology using BIAcore 2000 (Pharmacia, Piscataway, N.J.) according to the procedures provided by the manufacturer. Kinetic analyses of the antibodies were performed by immobilization of recombinant extracellular domain of VEGFR-I onto a sensor surface at a low density. The (kₒₙ) and dissociation (kₒ_{^ff}) rates were determined using the BIAevaluation 2.1 software provided by the manufacturer.
# mouse VEGFR-1-AP = molecular target: T2, mouse VEGFR-1-AP (mouse, UniProt P35969 23-759); assay: ELISA: plate coated with mouse VEGFR-1-AP 100 ng/well, goat anti-human kappa-HRP, O.D. 450
# T2 construct: From ImClone Systems; also called mouse VEGFR-I-AP; not shown: alkaline phosphatase fusion partner; not described
# T2 sequence (looked up): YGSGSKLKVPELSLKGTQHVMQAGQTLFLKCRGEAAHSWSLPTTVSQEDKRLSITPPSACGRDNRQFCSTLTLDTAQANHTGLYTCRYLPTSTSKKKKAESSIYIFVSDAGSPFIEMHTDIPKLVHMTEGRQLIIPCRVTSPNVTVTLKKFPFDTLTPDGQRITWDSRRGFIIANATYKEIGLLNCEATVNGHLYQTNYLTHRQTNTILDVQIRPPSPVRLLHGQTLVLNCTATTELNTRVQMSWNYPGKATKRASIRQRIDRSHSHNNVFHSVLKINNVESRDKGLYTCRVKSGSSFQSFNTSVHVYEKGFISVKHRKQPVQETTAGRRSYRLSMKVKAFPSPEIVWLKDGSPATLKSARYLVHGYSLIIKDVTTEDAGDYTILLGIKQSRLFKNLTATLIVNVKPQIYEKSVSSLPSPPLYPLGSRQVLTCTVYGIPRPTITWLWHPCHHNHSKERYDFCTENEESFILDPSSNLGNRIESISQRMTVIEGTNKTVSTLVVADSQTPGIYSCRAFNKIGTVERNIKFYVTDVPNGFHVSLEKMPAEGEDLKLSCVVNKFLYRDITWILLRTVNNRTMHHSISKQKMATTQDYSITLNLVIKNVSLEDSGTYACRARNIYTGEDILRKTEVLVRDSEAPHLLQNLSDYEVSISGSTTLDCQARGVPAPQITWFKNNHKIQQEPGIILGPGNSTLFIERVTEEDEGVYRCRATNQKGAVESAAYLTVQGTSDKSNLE
# mouse VEGFR-1 Fc = molecular target: T3, mouse VEGFR-1 Fc (mouse, UniProt P35969 23-759, limits assumed); assay: ELISA: antibody dilutions on plate coated with 1 µg/ml mouse VEGFR-1 Fc, HRP secondary, O.D. 450
# T3 construct: not shown: Fc part; not described
# T3 sequence (looked up): T2 sequence (looked up)
# Experimental: (§1) To determine the specificity of an anti-VEGFR-1 monoclonal antibody to human VEGFR-I, purified antibodies 18F1 were tested in an ELISA-based assay. One μg/ml of recombinant human VEGFR-I Fc, mouse VEGFR-I Fc, mouse VEGFR-2 Fc, or human VEGFR-2 alkaline phosphatase was coated with PBS in a 96-well microtiter plates at 4° C. over night. After wash, the receptor coated plates were blocked with PBS containing 5% Dry Milk and 0.05% Tween 20. Serial dilutions of primary antibody 18F1 to human VEGFR-I, MF1 to mouse VEGFR-I, IC1 1 to human VEGFR-2, or DClOl to mouse VEGFR-2 were incubated in the receptor-coated plates for 30 minutes. After wash secondary anti-primary HRP conjugate antibodies was incubated in the plates for 30 minutes. Plates were washed and incubated with the substrate TMB (3,3′,5,5′-tetra-methylbenzidine) for color development. The absorbance at 450 nm was read as OD values for quantification of binding activity of antibodies. Data were analyzed using a GraphPad Prism Software.
# [2] = molecular target: T4, recombinant human VEGFR-1 Fc (human, UniProt P17948-2 27-687, limits assumed); assay: ELISA: antibody dilutions on plate coated with 1 µg/ml human VEGFR-1 Fc, HRP secondary, O.D. 450
# T4 construct: Bought from R&D Systems; also called rhuVEGFR-1 Fc; HuVEGFR-I-Fc; not shown: Fc part
# T4 sequence (P17948 other isoform, or with tags, fused parts or gaps limits assumed): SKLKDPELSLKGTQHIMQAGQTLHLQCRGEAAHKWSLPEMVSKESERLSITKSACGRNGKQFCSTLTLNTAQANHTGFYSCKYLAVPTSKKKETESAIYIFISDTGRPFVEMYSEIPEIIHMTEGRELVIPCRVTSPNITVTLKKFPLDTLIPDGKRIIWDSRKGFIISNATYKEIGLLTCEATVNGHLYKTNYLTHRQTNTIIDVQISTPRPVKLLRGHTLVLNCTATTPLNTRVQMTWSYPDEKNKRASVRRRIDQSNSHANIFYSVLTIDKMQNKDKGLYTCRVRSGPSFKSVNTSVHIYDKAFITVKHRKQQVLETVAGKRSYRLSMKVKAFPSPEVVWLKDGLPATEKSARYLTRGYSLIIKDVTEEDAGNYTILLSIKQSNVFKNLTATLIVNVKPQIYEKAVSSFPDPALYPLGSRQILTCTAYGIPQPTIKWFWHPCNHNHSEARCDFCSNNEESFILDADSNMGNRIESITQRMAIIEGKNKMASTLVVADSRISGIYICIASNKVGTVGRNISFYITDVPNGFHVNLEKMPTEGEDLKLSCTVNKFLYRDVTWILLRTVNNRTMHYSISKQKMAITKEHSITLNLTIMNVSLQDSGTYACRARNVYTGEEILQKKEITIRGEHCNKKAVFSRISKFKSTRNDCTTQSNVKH
# Experimental: as §1
# [3] = molecular target: T5, soluble recombinant human VEGFR-1 alkaline phosphatase (human, UniProt P17948 27-758); assay: blocking ELISA: antibody preincubated with VEGFR-1 AP, binding to PlGF coated plate
# T5 construct: Made in house in stably transfected cells; also called rhuVEGFR-I AP; VEGFR-I AP; not shown: alkaline phosphatase fusion partner
# T5 sequence (P17948 27-758): as the sequence (P17948 27-758 limits assumed) above
# Experimental: (§2) Specifically, hybridoma supernatants or purified antibodies were diluted in PBS with 5% FBS and 0.05% Tween 20 (ELISA buffer) and incubated in rhuVEGFR-I AP or AP coated 96-well microtiter plates for 30 minutes. Plates were washed with the ELISA buffer and incubated with goat anti-mouse IgG-horseradish peroxidase (HRP) conjugate (BioSource International, Camarillo, Calif.) for 30 minutes. TMB (3,3′,5,5′-tetra-methylbenzidine) substrate (Kierkegaard and Perry Lab, Inc., Gaithersburg, Md.) was used for color development following the manufacturer's instruction. The absorbance at 450 nanometers (nm) was read for quantification of binding activity of antibodies. For identification of the hybridomas producing anti-VEGFR-I antibodies, hybridoma supernatants were preincubated with VEGFR-I AP for 1 hour. The mixtures were incubated with the ELISA buffer in VEGF or P1GF coated 96-well microtiter plates for 1 hour. PNPP (p-nitrophenyl phosphate) substrate for AP was used for color development following the manufacturer's instruction. The absorbance at 405 nm was read for quantification of VEGFR-I binding to VEGF or P1GF. Optical density (OD) values were read on a microtiter plate reader (Molecular Devices Corp., Sunnyvale, Calif.). ED50 and IC50 of the antibodies were analyzed using GraphPad Prism 3 software (GraphPad Software, Inc., San Diego, Calif.).
# [4] = molecular target: T5, soluble recombinant human VEGFR-1 …; assay: ELISA, purified antibody on rhuVEGFR-1 AP coated plate (given as ED50)
# Experimental: as §2
# [5] = molecular target: native VEGFR-1 expressed on the cell surface (human, UniProt P17948 27-1338); assay: cell-based or functional assay
# Chain of native VEGFR-1 expressed on the cell surface (P17948 27-1338): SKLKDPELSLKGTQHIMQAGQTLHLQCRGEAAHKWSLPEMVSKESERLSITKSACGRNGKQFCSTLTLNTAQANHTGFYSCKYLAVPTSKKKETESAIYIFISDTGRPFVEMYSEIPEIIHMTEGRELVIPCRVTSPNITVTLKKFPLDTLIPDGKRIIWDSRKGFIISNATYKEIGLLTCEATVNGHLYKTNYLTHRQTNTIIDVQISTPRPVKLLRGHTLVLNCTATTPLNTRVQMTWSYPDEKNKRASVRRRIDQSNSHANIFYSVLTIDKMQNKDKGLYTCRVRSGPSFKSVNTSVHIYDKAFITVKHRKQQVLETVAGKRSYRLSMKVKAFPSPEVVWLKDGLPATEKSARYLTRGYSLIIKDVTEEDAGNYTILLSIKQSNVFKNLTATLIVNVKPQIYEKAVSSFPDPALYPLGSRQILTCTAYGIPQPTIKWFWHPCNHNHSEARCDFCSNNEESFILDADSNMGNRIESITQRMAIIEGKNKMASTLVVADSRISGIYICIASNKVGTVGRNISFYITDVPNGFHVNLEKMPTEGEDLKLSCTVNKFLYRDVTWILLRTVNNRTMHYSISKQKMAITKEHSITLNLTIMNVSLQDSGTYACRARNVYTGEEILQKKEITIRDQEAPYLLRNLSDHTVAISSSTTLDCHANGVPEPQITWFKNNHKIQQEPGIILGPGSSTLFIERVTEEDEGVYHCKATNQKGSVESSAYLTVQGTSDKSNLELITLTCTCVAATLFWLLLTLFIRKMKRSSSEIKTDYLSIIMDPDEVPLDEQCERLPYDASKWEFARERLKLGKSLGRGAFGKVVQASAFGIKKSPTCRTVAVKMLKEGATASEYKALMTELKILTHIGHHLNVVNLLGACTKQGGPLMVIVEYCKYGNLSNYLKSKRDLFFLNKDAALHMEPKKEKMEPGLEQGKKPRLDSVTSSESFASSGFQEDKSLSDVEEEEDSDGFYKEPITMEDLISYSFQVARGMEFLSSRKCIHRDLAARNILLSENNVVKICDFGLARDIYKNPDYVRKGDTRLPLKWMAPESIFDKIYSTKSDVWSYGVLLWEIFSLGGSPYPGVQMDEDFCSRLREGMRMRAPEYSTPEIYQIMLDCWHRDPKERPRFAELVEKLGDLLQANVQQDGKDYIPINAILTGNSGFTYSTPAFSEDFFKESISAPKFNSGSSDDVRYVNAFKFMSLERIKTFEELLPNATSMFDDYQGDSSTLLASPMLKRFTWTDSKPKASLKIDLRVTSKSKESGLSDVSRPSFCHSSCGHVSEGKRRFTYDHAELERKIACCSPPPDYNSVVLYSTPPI
binder,measurement,setting,value
B1,Kd,[1],0.054 nM
same,kon,[1],810000 M⁻¹ s⁻¹
same,binding result,mouse VEGFR-1-AP,no binding (tested: 1 µg/mL)
same,binding result,mouse VEGFR-1 Fc,no binding (tested: 1 µg/ml)
same,EC50 (read off the curve),[2],~3 ng/mL
same,IC50,[3],0.55 nM
same,EC50,[4],0.1 nM
same,Inhibition of PlGF-induced DU4475 cell growth in vitro (IC50),[5],24 nM
